From the DeepSol protein solubility set

Assay: soluble on expression in E. coli; label from the status in PepcDB or PDB records

Sequence	soluble on expression in E. coli
MPPLFHPHLVNGPFDDPGLYVDFLFERRAVLFDLGDTAPLPPRKVLRLSHIFVSHTHVDHFIGFDRVVRLCLGREKRLHLLGPPGFVDQVAARLAGYTWNLVETFPTDFTLAAAELHPDGSVHSAEFHCLAAFSRDNERRDRAAGGVLLDEEAFRVRSVFLDHGIPCLAFALEEKNHVHILKNRLREAGLPTGAWLAELKRAILGGRDDGEPFRAWWRDGGKECEAWFPLGELRERFTKTVAGQKIVYVTDAAPTPENRRLIVELAAGADYLFIEAPFLDEERERAGDRCHLTARIAGELGRDAGVARVVPFHFSPRYMGRESLLRDEVERAFRGLEHHHHHH	not soluble
MATVHKVGDSTGWTTLVPYDYAKWASSNKFHVGDSLLFNYNNKFHNVLQVDQEQFKSCNSSSPAASYTSGADSIPLKRPGTFYFLCGIPGHCQLGQKVEIKVDPGSSSA	soluble
MAIFRDYSINPTEHDRTIGDRRRHRELVEKAIKDNLADIVSEESIIGESKSKKIKIPIRGLKEYKFLYGNNSSSVGSGTGNEKKGDIIGKEQMGNGSKGKGKGAGNSEGEDIYETEVTIEEVFSYLLEDLNLPNLDKKKYSEIVTDSSKKKAGYQKYGIRPRLAKKRTVIEKIKREQSRKRAIKELGKDDKVERLPFSEEDLRYHRIKEKPKKECNAAIMCVMDCSGSMDSTKKYLARSFFFILSKFIRMKYVNVEIAFISHSTVGREVTETEFFHKVESGGTYISSGLNTAMDIIKERFNPATWNIYGFYVSDGDNFTEDDERAIKSMRKFCEIANMIGYAEILPYSYSGTMKYKFDNYVKDKNFISSTIRNKEDLWPVLKKMLIKELKELEHHHHHH	soluble
MGSDKIHHHHHHMVQNTFSDFDVSGFWDDSAYSIEEYVEETPTDALIDSIEQELGYKLPASYIELMKQHNGGTPVNCCFPVTEETSGTEYHVEISGIMGIGRSKTYSLGGSFGSRFMIDEWGYPDTGIYVCTCPSAGHEMILLDYSICGPKGEPQVFYVDQEREYQKTFLAKDFETFIRGLVHADVYDTSAQDLISTLETFRTGNFSEVLQAYIKKDLSVNFDRVLRNLFTELTTEKGYFALHADELSYLSYDIQFYLLSINRKIKSKEDFVKHYLPMVAMSDAGITTGGYANFFEDWFDEKIKSKEITKGLLSGFLFTEIYKQKLFERIKQYDK	not soluble
MSLKLVFYGAGNMAHAIFTGIVNSKVIDSNDIYLTNRSNEVALKEYAEKLGVNYSYDDEALLKAADYVFLGTKPYDFESLAERIKPFITDKNKFISIMAGLPISYIREKLEADNPIARIMPNTNAHVGHSVTGISFSSNFGPNSKDEVDELINAFGSAIEVPEDNLHQVTAITGSGPAFLYHVFEQYVTAGTRLGLEKAQVEESIRNLIIGTSKMIERSELSMEQLRKNITSKGGTTQAGLNALSQHDLESVFEDCLRAAVDRSVELSSQDEGHHHHHH	soluble
MNLTDYVKEVSRQDFGIEFQHTASWNSRLQTTGGRFFPEDGHLDFNPKFCKKGDAGTFRKIVRHELCHYHLYYAGKGYRHGDKDFKDLLLQVNGVRYAPSIQSNTFYHYYQCESCGQVYQRKRRMNTKKYACGNCHGKLRHQNQSLEHHHHHH	not soluble
MGSDKIHHHHHHMVNNMTDLTAQDAAWSTRDHLDDPVIGELRNRFGPDAFTVQATRTGIPVVWVKREQLLEVGDFLKKLPKPYVMLFDLHGMDERLRTHRDGLPAADFSVFYHLISIERNRDIMLKVALSENDLRVPTFTKLFPNANWYERETWEMFGIDIEGHPHLTRIMMPQTWEGHPLRKDYPARATEFDPFELTKAKQDLEMEALTFKPEDWGMKRGTDNEDFMFLNLGPNHPSAHGAFRIILQLDGEEIVDCVPDIGYHHRGAEKMGERQSWHSYIPYTDRIEYLGGCVNEMPYVLAVEKLAGITVPDRVNVIRVMLSELFRINSHLLYISTFIQDVGAMTPVFFAFTDRQKIYDLVEAITGFRMHPAWFRIGGVAHDLPRGWDRLLREFLEWMPKRLDSYEKAALRNTILKGRSQGVAAYGAKEALEWGTTGAGLRATGIDFDVRKWRPYSGYENFDFEVPVGGGVSDCYTRVMLKVEELRQSLRILQQCLDNMPEGPFKADHPLTTPPPKERTLQHIETLITHFLQVSWGPVMPAQESFQMVEATKGINSYYLTSDGSTMSYRTRVRTPSFAHLQQIPSAIRGSLVSDLIVYLGSIDFVMSDVDR	not soluble
MSFKEIKAEDLQFNPFTRIGSDWMLITAGDEKKFNTMTASWGGAGVFWGKNVVTCYIRPQRYTKEFVDANDTFTLSFYGPECKNALNLCGTVSGRDRDKISEAGLTPYFTEGTAAFEEANLIFVCRKIYQDDMPYENFIAKENDAKYYPNKDYHTMYIAEIVKILVAE	not soluble
MRLDVEQTSKLDRVRADYNVHYWSQGFYGIDDQGEMYVSPRSDNAHQIQLSKIVKQLEERQLNVPVLVRFPQILHQRVHSICDAFNQAIEEYQYPNKYLLVYPIKVNQQREVVDEILASQAQLETKQLGLEAGSKPELLAVLAMAQHASSVIVCNGYKDREYIRLALIGEKLGHKVFIVLEKMSELDLVLREAKSLGVTPRLGIRIRLASQGAGKWQASGGEKSKFGLSASQVLNVISRLKKENQLDTLQLVHFHLGSQMANIRDVRNGVNESARFYCELRTLGANITYFDVGGGLAIDYDGTRSQSSNSMNYGLVEYARNIVNTVGDVCKDYKQPMPVIISESGRSLTAHHAVLISNVIGTETYKPETVTEPEEDFPLLLNNMWRSWLNLHNGTDARALIEIYNDTQSDLAEVHSQFATGVLTLEHRAWAEQTSLRIYYELNRLMSTKNRFHRPILDELSERLADKFFVNFSLFQSLPDSWGIDQVFPVLPLSGLQNAADRRAVMLDITCDSDGAIDAYVDGQGIESTLPVPAWNEDEPYLMGFFLVGAYQEILGDMHNLFGDTHSVVVNVGDQGEINIDFINEGDTVEDMMRYVHIDVDQIRKNYHSLVSQRVDQEEQQQILAELEQGLSGYTYLEDFLEHHHHHH	soluble
MMAQEISNLVKKYNVTWQQTMLRIYDPKETVEFYEKNFGMINIHTYHFNEYNFSLYFLITPPYDEEERKKLPEPNTKESEKYLWNLNTVCLELTYNHNSQEKLSNGNNENDRGFGHIAFNCNDVIEQCDNLFKKNVKFHKLPHETKMKTIGFALDPNNYWIEIVKRSNQVKWKNYKNITNFSQTMIRVKNPEKSLYFYIHILGMKLIHVKHCSDFSLYFLKSNYACAENNKEMIEDQSNKNTNEIYDFNSLKNSYQTDEDYENFKQSWEPVLELTHNHGTEDDDNFSYHNGNTEPRGFGHIGFLVNDLENYCKELETLNVTFKKKVTEGLMKNIAFIYDPDNYVIELIQRDTSFIAK	not soluble
MKMKTDDTFNHAHADRLLLPNASLLGEVENMLADGRSVMLKATGNSMLPFIVGGRDSVLVRRPSGIQALQVWQIALAHLPDSRYVLHRIVRIHGAEIVLMGDGNLKETESCRFPDITGVVTRIIRNGRYVDCDAGGERCKAKIWGRLLPIRRYLLYIYRRVWI	not soluble
AKKAMEQILIPVANPETIENLVNLALVIKDAKQKNGMIALNVINDNNSSENKELQGKRNLEKAAMIAAAADVPVTMVSRYDLNIASGIIHTIKEYEATDVVIGLHRKANIVDSFFGNLAESLLKGTHREVMIAKFLM	not soluble
MGSDKIHHHHHHMIRSLWIAKTGLNAQQTNMDVISNNLANVSTNGFKRQRAVFEDLMYQTIRQPGAQSSEQTMLPSGLQLGTGVRPVSTERIHTQGTFSETGNSKDVAIKGQGFFQVQLPDGTTAYTRDGAFQLDGNGQLVTSSGYQVQPAITVPANATELNIGRDGIVSVKVQGQAATNQIGQLTLTTFINDSGLESMGENLYLETASSGAPNETNPGLNGAGLLYQKYVETSNVNVAEELVSMIQTQRAYEINSKAISSSDQMLQKLTQL	not soluble
MKTTTQELKQYITRLFQLSNNETWECEALEEAAENILPERFINNSLLAHLTLNTYTYYNDELHELSIYPFLMYANDQLISIGYLDHFDMDFLYLTDTKNTLIDERHLLKQGGNHHELEHHHHHH	soluble
MEPHLKIDVSSASGSTTTGATASTSEAPQDSQAQQTMPPPSSDWSNQFNSPEAEDMGPFVEQLLPFVRASAYNWFHLQAAKRRHFKEFDKKMCASEENAKLAELQNDRDELKVKWASRLLGKIKKDIQNDDKEAFISAINGSEPNKCIISVADQKGKMRRIDCLRQADKVWRLDLVTIILFKGIPLESTDGERLERSEACVHPLCINPFHMAISVRGLDVFMANYLKDVDTKITLTYPRNDELSDTVMVKQEPGEQTIVAPHAVLGTSSTHTRVWETNSERNAETIIITYDPQKACHTYFGGRATLAQQSLSAGNTYMVNKTAVDNNFFNAKRSVLCLPPPPIQNCFPYPIAGTSDSQQMDMSEDSNDGPSEKRSRDISSHDSPNSSTNDEVRRIVESGTEKLVLGSSIWAAPGQFSRTQQNQGAPGTSRQVRPLPDFQSQDSARSPGAFRSTAKPVCRMTVNTGNHGDVGVVVVDERNREHVIHAQHIVNALSSLRTTPSMRESPVGRKRMHPHTSNSFEFLNCNQEMNKNEGALGSDISPTHTAVSNLISRESSGYMASPTKFTTARGDTTSFSKIFQKIEEKHLQHNQPSTSYCNSQIQPPILSSKPVDSSVKLIAPVAVKPIMSGCNSIIPSPITTPRITPSFRMLEDDSLINVLGQLAHSNDGTTLNDSFIQHLIDTNSRSPLLSSGNAFSALSMGARIEFVGCSNGIGRSSKYCTGRPANSKCNVTSSSRAANQAPVSNTPQDPNAPKLPTDFSHALRNEKK	not soluble
MSLKFTAIDFETANEKRNSPCSIGIVVVKDGHVVEKSHHLIRPKEMRFMPINIGIHGIRPAMVEKEPEFDKVWEKIKHYFDDTLVIAHNASFDISVLRKSAELYNIELPEFNYICTMKLARNFYKGIENAKLNTVNNFLGYEFRHHDALYDALACSNIMLSISKELKCKDITEISKLLGVTVGKVDSKGYKPSQTKGIAVRTSDRIYFSKKKSAFERLKADEFKNEVVVFTGRLDSMSRDEAMGLVRRLGGTAGSSVTKKTTILVTNMKNIKNLRREEMSNKLKRASDLNARGQNIKFLNEEEFLKIKEGHHHHHH	soluble
MASGDLVHYVITVMLHEDTLTEINELNNYLTRDGFLLTMTDDEGNIHELGTNTFGLISTQSEEEIRELVSGLTQSATGKDPEITITTWEEWNSNRK	not soluble
MCLICDRIKMIKINQNKFFVKELKTGYVVLGDNQHFKGYTLFLYKEHENELYQLEPNEKLNFLEEMSLVGEAVSKAFECEKMNYELLGNGDSHLHWHLFPRISGDLGEYGYYGKGPVWWYPREKMYSTDNEPTDEELEKLKQRLNVELDRLFYEKLEHHHHHH	not soluble
MYQSIHVNKGQGGWGTGLDLTPSEPRTKVVSITGGGIHPVALKIAELSGAEAVDGFKNSIPEEEMMCVVIDCGGTARIGVYPMKRIPTVDILPSSPSGPLAKHITEDIFVSGVKPEDIMVTSSEADPGKPFDREKFKEDYAKIKEDQQEASDLKEGYLVKFSRGIGKAMGVFYQAGRDSVDMLIKN	not soluble
SESLVVCDVAEDLVEKLRKFRFRKETHNAAIIMKIDKDERLVVLDEELEGVSPDELKDELPERQPRFIVYSYKYQHDDGRVSYPLCFIFSSPVGCKPEQQMMYAGSKNKLVQTAELTKVFEIRNTEDLTEEWLREKLG	soluble
VGLIEKQKVQDSDFIEHKEVGLLISHDGIYFKFEPEQLAKHLVEFKSEQDQLIFGGVVQNSDYFFMVTSLGNIITVPIYKTLSNTKTKMNELLAKKPILMEDEKLVLAGIVNPDKME	soluble
